Several values for one entry are separate records, joined by “and”; a condition that tells them apart may be missing. Equal entries are not always repeated. Where two headings read alike, the source gives them in different places. *1 amine or outer side, *2 acyl side, *3 side chain or, on linkers, in order; H or OH if unused. Bridges are numbered along the chain shown (N, C = ends). Where no end group is shown, it is not given here. Side-chain parts run from the residue outwards. [ ]: non-standard residue; d: D form. The star is where a group is joined. (mPEG)2 40 kDa = C3 = Cys(mPEG)240kDa, branched (mPEG)2, 40 kDa; Oxa12‑cholesterol = C10 = Cys(oxa12-cholesterol); γGlu = O=C(O)[C@H](CCC(=O)[*:2])N[*:1]; oxa12‑cholesterol = not defined here; Palmitoyl = CCCCCCCCCCCCCCCC(=O)*; Met(O) = CS(=O)CC[C@H](N)C(=O)O; Ac4c = NC1(C(=O)O)CCC1; Aib = CC(C)(N)C(=O)O
What was measured:
Test in all cases: cell-based or functional assay
[1] = biological target: T1, human glucagon receptor (human, UniProt P47871 26-477)
T1 sequence (P47871 26-477): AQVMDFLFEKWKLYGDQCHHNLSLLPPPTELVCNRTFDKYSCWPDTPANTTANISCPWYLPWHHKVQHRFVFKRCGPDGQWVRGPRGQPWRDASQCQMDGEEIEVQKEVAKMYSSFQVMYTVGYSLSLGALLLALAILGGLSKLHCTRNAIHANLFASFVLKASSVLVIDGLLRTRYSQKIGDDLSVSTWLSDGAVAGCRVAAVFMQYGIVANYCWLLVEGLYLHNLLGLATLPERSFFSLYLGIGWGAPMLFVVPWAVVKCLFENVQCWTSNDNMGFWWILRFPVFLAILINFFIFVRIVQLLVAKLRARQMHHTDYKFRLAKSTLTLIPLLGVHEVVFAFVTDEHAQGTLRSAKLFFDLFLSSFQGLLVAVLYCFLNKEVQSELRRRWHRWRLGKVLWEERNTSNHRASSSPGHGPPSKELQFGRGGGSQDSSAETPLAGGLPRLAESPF

[2] = biological target: T2, human GLP-1 receptor (human, UniProt P43220 24-463)
[3] = biological target: T1, human glucagon receptor; remark: listed apart in the source
[4] = biological target: T1, human glucagon receptor; remark: listed apart in the source
[5] = biological target: T2, human GLP-1 receptor; remark: listed apart in the source

| Binder | % Activation of GCGR [1] | GCGR EC50 [1] | GLP-1R EC50 [2] | hGCGR + 20% plasma EC50 [4] | hGLP-1R + 20% Plasma EC50 [5] | further results |
| --- | --- | --- | --- | --- | --- | --- |
| HSQGTFTSDYSKYLDSRRAQDFVQWLMNTKRNRNNIAC (D-Ser at position 2; C1 = Cys(mPEG)5kDa at position 38; C-terminal amide) [OXM33] | 78% | 75.3 nM | 115 nM | – | – | – |
| HXQGTFTSDYSKYLDSRRAQDFVQWLMNTKRNRNNIAC (Aib at position 2; C2 = Cys(mPEG)20kDa at position 38; C-terminal amide) [OXM68] | 58% | 601 nM | 8.3 nM | – | – | – |
| HXQGTFTSDYSKYLDSRRAQDFVQWLMNTKRNRNNIAC (α-aminoisobutyric acid (Aib) at position 2; C1 = Cys(mPEG)5kDa at position 38; C-terminal amide) [OXM67] | 73% | 138 nM | 5.8 nM | – | – | – |
| HSQGTFTSDYSKYLDSRRAQDFVQWLMNTKRNRNNIAK (D-Ser at position 2; K(palmitoyl) at position 38; C-terminal amide) [OXM110] | – | – | – | – | – | GCGR + 10% plasma [3]: 6.9 nM; GCGR EC50 [3]: 0.31 nM |
| HXQGTFTSDYSKYLDSRRAQDFVQWLMNTKRNRNNIAC (Aib at position 2; methionine sulfoxide at position 27; C6 = Cys(mPEG)260kDa (60 kDa) at position 38; C-terminal amide) [OXM100] | 22% | > 1000 nM | 22.5 nM | – | – | – |
| HSQGTFTSDYSKYLDSRRAQDFVQWLMNTKRNRNNIAC (not fully specified; D-Ser at position 2; C4 = Cys(cholest-5-en-3-yl{[(2R)-3-amino-2-(amino)-3-oxopropyl]thio}acetate) at position 38; C-terminal amide) [OXM36] | – | – | – | – | – | GCGR EC50 [3]: 12.1 nM |
| HSQGTFTSDYSKYLDSRRAQDFVQWLMNTKRNRNNIAC (D-Ser at position 2; C3 = Cys(mPEG)240kDa (branched (mPEG)2, 40 kDa) at position 38; C-terminal amide) [OXM35] | 71% | 142 nM | 716 nM | – | – | – |
| HSQGTFTSDYSKYLDSRRAQDFVQWLMNTKRNRNNIAC (D-Ser at position 2; C2 = Cys(mPEG)20kDa at position 38; C-terminal amide) [OXM34] | 61% | 616 nM | 195 nM | – | – | – |
| HXQGTFTSDYSKYLDSRRAQDFVQWLMNTKRNRNNIAC (Aib at position 2; C3 = Cys(mPEG)240kDa (branched (mPEG)2, 40 kDa) at position 38; C-terminal amide) [OXM69] | 46% | > 1000 nM | 6 nM | – | – | – |
| HXQGTFTSDYSKYLDSRRAQDFVQWLMNTKRNRNNIAC (not fully specified; Aib at position 2; methionine sulfoxide at position 27; C3 = Cys(mPEG)240kDa (40 kDa) at position 38; C-terminal amide) [OXM99] | 66% | > 1000 nM | 7.4 nM | – | – | – |
| H[Aib]QGTFTSDYSKYLDERRAKDFVQWLMNTK[γGlu][γGlu]C(Oxa12‑cholesterol)-OH (lactam 16-20) [OXM395] | – | – | – | 119 nM | 3.3 nM | hGCGR EC50 [4]: 10 nM; hGLP-1R EC50 [5]: 0.7 nM |
| H[Aib]QGTFTSDYC((mPEG)2 40 kDa)KYLDSRRAQDFVQWL[Met(O)]NTKRNRNNIA-NH2 [OXM121] | – | – | > 125 nM | – | – | – |
| H[Aib]QGTFTSDYSC((mPEG)2 40 kDa)YLDSRRAQDFVQWL[Met(O)]NTKRNRNNIA-NH2 [OXM124] | – | – | > 100 nM | – | – | – |
| H[Aib]QGTFTSDYSKYLDSRRAQC((mPEG)2 40 kDa)FVQWLMNTKRNRNNIA-NH2 [OXM105] | 21% | 648 nM | 28.5 nM | – | – | – |
| HSQGTFTSDKSKYLDSRRAQDFVQWLMNTK (D-Ser at position 2; Lys(γE-γE-palmitoyl) at position 10; C-terminal amide) [OXM409] | – | – | – | 0.1 nM | 0.7 nM | – |
| HSQGTFTSDYSKYLDSRRAQDFVQWLMNTKEEC (D-Ser at position 2; gamma-glutamic acid at positions 31 and 32; C4 = Cys(cholesterol) at position 33; C-terminal COOH) [OXM345] | – | – | – | > 1000 nM | > 1000 nM | hGCGR EC50 [4]: 0.1 nM; hGLP-1R EC50 [5]: 5.1 nM |
| HXQGTFTSDYSKYLDSRRAQDFVQWLMNTKEEC (Aib at position 2; gamma-glutamic acid at positions 31 and 32; C10 = Cys(oxa12-cholesterol) at position 33; C-terminal COOH) [OXM400] | – | – | – | 0.8 nM | 1.9 nM | hGCGR EC50 [4]: 0.01 nM; hGLP-1R EC50 [5]: 0.07 nM |
| HSQGTFTSDYSKYLDSRRAQDFVQWLMNTKEEC (D-Ser at position 2; gamma-glutamic acid at positions 31 and 32; C10 = Cys(oxa12-cholesterol) at position 33; C-terminal COOH) [OXM399] | – | – | – | 0.4 nM | 5.7 nM | hGCGR EC50 [4]: 0.01 nM; hGLP-1R EC50 [5]: 0.05 nM |
| HSQGTFTSDYSKYLDSRRAQDFVQWLMNTKEEC (D-Ser at position 2; gamma-glutamic acid at positions 31 and 32; C9 = Cys(mal-oxa12-cholesterol) at position 33; C-terminal COOH) [OXM381] | – | – | – | 0.8 nM and 0.9 nM | 1.9 nM | – |
| HXQGTFTSDYSKYLDSRRAQDFVQWLMNTKEEC (Acb (1-amino-1-cyclobutane carboxylic acid) at position 2; gamma-glutamic acid at positions 31 and 32; C10 = Cys(oxa12-cholesterol) at position 33; C-terminal COOH) [OXM401] | – | – | – | 0.3 nM | 2.9 nM | hGCGR EC50 [4]: 0.09 nM; hGLP-1R EC50 [5]: 0.23 nM |
| HSQGTFTSDYSKYLDSRRAQDFVQWLMNTKEEC (D-Ser at position 2; gamma-glutamic acid at positions 31 and 32; C7 = Cys(Oxa4-cholesterol) at position 33; C-terminal COOH) [OXM380] | – | – | – | 3.4 nM | 30.7 nM | hGCGR EC50 [4]: 0.1 nM; hGLP-1R EC50 [5]: 0.3 nM |
| H[dS]QGTFTSDYSKYLDERRAKDFVQWLMNTK[γGlu][γGlu]C(oxa12‑cholesterol)-OH (lactam 16-20; reading uncertain) [OXM392] | – | – | – | 0.3 nM | 3 nM | hGCGR EC50 [4]: 0.03 nM; hGLP-1R EC50 [5]: 0.03 nM |
| H[dS]QGTFTSDK([γGlu-γGlu-Palmitoyl])SKYLDERRAQDFVQWLMNTK-NH2 (N-terminus assumed; SMILES CCCCCCCCCCCCCCCC(=O)N[C@@H](CCC(=O)N[C@@H](CCC(=O)NCCCC[C@H](NC(=O)[C@H](CC(=O)O)NC(=O)[C@H](CO)NC(=O)[C@@H](NC(=O)[C@H](Cc1ccccc1)NC(=O)[C@@H](NC(=O)CNC(=O)[C@H](CCC(N)=O)NC(=O)[C@@H](CO)NC(=O)[C@@H](N)Cc1c[nH]cn1)[C@@H](C)O)[C@@H](C)O)C(=O)N[C@@H](CO)C(=O)N[C@@H](CCCCN)C(=O)N[C@@H](Cc1ccc(O)cc1)C(=O)N[C@@H](CC(C)C)C(=O)N[C@@H](CC(=O)O)C(=O)N[C@@H](CCC(=O)O)C(=O)N[C@@H](CCCNC(=N)N)C(=O)N[C@@H](CCCNC(=N)N)C(=O)N[C@@H](C)C(=O)N[C@@H](CCC(N)=O)C(=O)N[C@@H](CC(=O)O)C(=O)N[C@@H](Cc1ccccc1)C(=O)N[C@H](C(=O)N[C@@H](CCC(N)=O)C(=O)N[C@@H](Cc1c[nH]c2ccccc12)C(=O)N[C@@H](CC(C)C)C(=O)N[C@@H](CCSC)C(=O)N[C@@H](CC(N)=O)C(=O)N[C@H](C(=O)N[C@@H](CCCCN)C(N)=O)[C@@H](C)O)C(C)C)C(=O)O)C(=O)O) [OXM411] | – | – | – | 0.2 nM | 0.1 nM | – |
| H[Aib]QGTFTSDK([γGlu-γGlu-Palmitoyl])SKYLDERRAQDFVQWLMNTK-NH2 (N-terminus assumed; SMILES CCCCCCCCCCCCCCCC(=O)N[C@@H](CCC(=O)N[C@@H](CCC(=O)NCCCC[C@H](NC(=O)[C@H](CC(=O)O)NC(=O)[C@H](CO)NC(=O)[C@@H](NC(=O)[C@H](Cc1ccccc1)NC(=O)[C@@H](NC(=O)CNC(=O)[C@H](CCC(N)=O)NC(=O)C(C)(C)NC(=O)[C@@H](N)Cc1c[nH]cn1)[C@@H](C)O)[C@@H](C)O)C(=O)N[C@@H](CO)C(=O)N[C@@H](CCCCN)C(=O)N[C@@H](Cc1ccc(O)cc1)C(=O)N[C@@H](CC(C)C)C(=O)N[C@@H](CC(=O)O)C(=O)N[C@@H](CCC(=O)O)C(=O)N[C@@H](CCCNC(=N)N)C(=O)N[C@@H](CCCNC(=N)N)C(=O)N[C@@H](C)C(=O)N[C@@H](CCC(N)=O)C(=O)N[C@@H](CC(=O)O)C(=O)N[C@@H](Cc1ccccc1)C(=O)N[C@H](C(=O)N[C@@H](CCC(N)=O)C(=O)N[C@@H](Cc1c[nH]c2ccccc12)C(=O)N[C@@H](CC(C)C)C(=O)N[C@@H](CCSC)C(=O)N[C@@H](CC(N)=O)C(=O)N[C@H](C(=O)N[C@@H](CCCCN)C(N)=O)[C@@H](C)O)C(C)C)C(=O)O)C(=O)O) [OXM416] | – | – | – | 1.4 nM | 0.09 nM | – |
| H[Aib]QGTFTSDYSKYLDSRRAC((mPEG)2 40 kDa)DFVQWLMNTKRNRNNIA-NH2 [OXM103] | 75% | 203 nM | 6.2 nM | – | – | – |
| H[Ac4c]QGTFTSDK([γGlu-γGlu-Palmitoyl])SKYLDERRAQDFVQWLMNTK-NH2 (N-terminus assumed; SMILES CCCCCCCCCCCCCCCC(=O)N[C@@H](CCC(=O)N[C@@H](CCC(=O)NCCCC[C@H](NC(=O)[C@H](CC(=O)O)NC(=O)[C@H](CO)NC(=O)[C@@H](NC(=O)[C@H](Cc1ccccc1)NC(=O)[C@@H](NC(=O)CNC(=O)[C@H](CCC(N)=O)NC(=O)C1(NC(=O)[C@@H](N)Cc2c[nH]cn2)CCC1)[C@@H](C)O)[C@@H](C)O)C(=O)N[C@@H](CO)C(=O)N[C@@H](CCCCN)C(=O)N[C@@H](Cc1ccc(O)cc1)C(=O)N[C@@H](CC(C)C)C(=O)N[C@@H](CC(=O)O)C(=O)N[C@@H](CCC(=O)O)C(=O)N[C@@H](CCCNC(=N)N)C(=O)N[C@@H](CCCNC(=N)N)C(=O)N[C@@H](C)C(=O)N[C@@H](CCC(N)=O)C(=O)N[C@@H](CC(=O)O)C(=O)N[C@@H](Cc1ccccc1)C(=O)N[C@H](C(=O)N[C@@H](CCC(N)=O)C(=O)N[C@@H](Cc1c[nH]c2ccccc12)C(=O)N[C@@H](CC(C)C)C(=O)N[C@@H](CCSC)C(=O)N[C@@H](CC(N)=O)C(=O)N[C@H](C(=O)N[C@@H](CCCCN)C(N)=O)[C@@H](C)O)C(C)C)C(=O)O)C(=O)O) [OXM417] | – | – | – | 0.4 nM | 0.15 nM | – |
| HXQGTFTSDYSKYLDSRRAQDFVCWLMNTKRNRNNIA (Aib at position 2; C3 = Cys(mPEG)240kDa (40 kDa) at position 24; methionine sulfoxide at position 27; C-terminal amide) [OXM107] | 30% | > 1000 nM | 29.7 nM | – | – | – |

From patent US20120165503A1 (Merck Sharp & Dohme, published 2012)
